Data reported in the supplement of paper PMC9170038.

System: MS2 coat protein
Test: apparent KD of MS2 coat protein; designed switch direction (-1 OFF switch, 1 ON switch): -1; higher = weaker reporter binding
Summary of the method: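 Designed RNA switches were transcribed on Illumina chips by stalled E. coli RNA polymerase and titrated with SNAP-549-labelled MS2 coat protein from 0.7 or 1.5 nM, doubling to 3 µM. Step length ran from 0.8–1.5 h at the lowest concentration to 10–20 min at the highest. The apparent KD is the median over clusters for each design, from curve-fitted normalised cluster fluorescence.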

[1] = Eterna round: R95, input ligand: FMN 200 uM
[2] = Eterna round: R95, input ligand: microRNA oligo, concentration not stated
[3] = Eterna round: R95, input ligand: none
[4] = input ligand: microRNA oligo, concentration not stated

| Sequence | apparent KD of MS2 coat protein [1] [nM] | apparent KD of MS2 coat protein [2] [nM] | apparent KD of MS2 coat protein [3] [nM] | apparent KD of MS2 coat protein (input ligand: FMN 200 uM) [nM] | apparent KD of MS2 coat protein (input ligand: none) [nM] | apparent KD of MS2 coat protein [4] [nM] |
| --- | --- | --- | --- | --- | --- | --- |
| AAGAGUGCAGGAUAUACGUGAGAAAGGAGGAUGAGAGAAGGACAUGAGGAUCACCCAUGUAGAAGGGCAGAGAG [JR_Exclu2_Sub060] (puzzle: Exclusion 2) | 29.8 | 36.4 | 76.8 | – | – | – |
| AAGCAACAUGAGGAUCACCCAUGUUAGGAUAUACGCAUGCAUGCAUGCAUGCAUGCAAGUAGAAGGAACCAUGC [Design #15] (Eterna round: R97, puzzle: Exclusion 1) | – | – | – | 32 | 49 | – |
| AAGCUGUCAGGAUAUCGUUAAUUUAGUUGUUUGUAUUAGUUCGAGAAGGGACAUGAGGAUCACCCAUGUAUGUA [Ex4 #39] (Eterna round: R97, puzzle: Exclusion 4) | – | – | – | 76.3 | 34.2 | – |
| AAGCUGUGAGGAUAUACAUGAGGAUCACCCAUGUUAAGGAAGUCGGGAUUAAUUUGGUGUAGAAGGCGCUUAUU [JR_Ex3_Sub019] (Eterna round: R97, puzzle: Exclusion 3) | – | – | – | 46.1 | 48.6 | – |
| AAGGGACAUGAGGAUCACCCAUGUCAGGAUAUUAGUGUGAGUCACCUUGUGAAUACACUAAGAAGGGAUAGAAA [Eternabot (Original) Solution 38] (Eterna round: R97, puzzle: Exclusion 1) | – | – | – | 69.8 | 84.5 | – |
| AAGGGUACUUUCGGAACGACAUGAGGAUCACCCAUGUAGACUGAGGAUAUCUACUACUAAGGACGGGAGAAGGCAGUGUAAUGU [Ex NG3 #76] (Eterna round: R96, puzzle: Exclusion NG 3) | – | – | – | – | – | 11.8 |
| AAGGGUACUUUCGGAACGACAUGAGGAUCACCCAUGUAUACUGAGGAUAUCCACUACUAAGGACGGGAGAAGGCAGUGUACUGU [Ex NG3 #79] (Eterna round: R96, puzzle: Exclusion NG 3) | – | – | – | 26.1 | 16.6 | 12.6 |
| AAGUACCGUCACGAUAGUGAUGGUACAACAAGCAGUGAAACAUGAGGAUCACCCAUGUCCUCAAUUGCUCGUCUUAU [Sensor 3 - 74] (puzzle: Sensor v3, turn-off variant 2) | 39.9 | 195 | 37.5 | – | – | – |
| AAGUACCGUCACGAUAGUGAUGGUACAACAGGCAAAUGUACAUGAGGAUCACCCAUGUCCUCUUUUGCUCGUCUUGU [Sensor 3 - 35] (puzzle: Sensor v3, turn-off variant 2) | 94.2 | 34 | 114 | – | – | – |
| AAGUACCGUCACGAUAGUGAUGGUACAGCAAGCAAGUGAACAUGAGGAUCACCCAUGUCCUCAAUUGCUCGUCUUAU [Sensor 3 - 72] (puzzle: Sensor v3, turn-off variant 2) | 25 | 55.5 | 24.1 | – | – | – |
| AAGUAUAGAGGAUAUAGUGAGUACUACAUGAGGAUCACCCAUGUUCUUCAAAGCGUAUUUCUAGAAGGCUGAUGAA [EX-5 Malc#15] (puzzle: Exclusion 5) | 58.4 | 38.8 | 51.5 | – | – | – |
| AAUAACAAGCAAGAUCCUAACAUGAGGAUCACCCAUGUGCUCGUCUUAUAAAGUACUAUCACGAAAGUGAUAGUACA [Sensor 3, v1 - 45] (puzzle: Sensor v3, turn-off variant 1) | 470 | 306 | 420 | – | – | – |
| AAUAACAAGCCGAUCCUCGACAUGAGGAUCACCCAUGUGCUCGUCUUGUAAAGUACUAUCACGAAAGUGAUAGUACA (Eterna round: R97, puzzle: Sensor, turn-off variant 1) | – | – | – | 174 | 419 | – |
| AAUAACAAGUAGGAUCCUAACAUGAGGAUCACCCAUGUGCUCGUCUUAUAAAGUACUAUCACGAAAGUGAUAGUACA [Sensor 3, v1 - 53] (puzzle: Sensor v3, turn-off variant 1) | 44.4 | 64.2 | 83.5 | – | – | – |
| AAUAACAGAGGAUAUACUAUUUUAUGUGUUUAUUGUUUUAAACAUGAGGAUCACCCAUGUAGAAGGCUGAAUGA [JMF 59] (puzzle: Exclusion 2) | – | 34.4 | – | – | – | – |
| AAUAACAGAGGAUAUACUAUUUUAUGUGUUUAUUGUUUUAAACAUGAGGAUCACCCAUGUAGAAGGCUGAGUAA [JMF 31] (puzzle: Exclusion 2) | – | 37.4 | – | – | – | – |

| Sequence | apparent KD of MS2 coat protein [1] [nM] | apparent KD of MS2 coat protein [2] [nM] | apparent KD of MS2 coat protein [3] [nM] | apparent KD of MS2 coat protein (input ligand: FMN 200 uM) [nM] | apparent KD of MS2 coat protein (input ligand: none) [nM] | apparent KD of MS2 coat protein [4] [nM] |
| --- | --- | --- | --- | --- | --- | --- |
| AAUAACAGAGGAUAUACUAUUUUAUGUGUUUGUUAUUUUAAACAUGAGGAUCACCCAUGUAGAAGGCUGAAUAA [JMF 14] (puzzle: Exclusion 2) | – | 19.1 | – | – | – | – |
| AAUAACAGAGGAUAUACUAUUUUAUGUGUUUGUUAUUUUGAACAUGAGGAUCACCCAUGUAGAAGGCUGAUUAA [JMF 49] (Eterna round: R96, puzzle: Exclusion 2) | – | – | – | 45.6 | 44.1 | 35.2 |
| AAUAACAGAGGAUAUACUAUUUUAUGUGUUUGUUAUUUUGAACAUGAGGAUCACCCAUGUAGAAGGCUGAUUAA [JMF 49] (puzzle: Exclusion 2) | – | 39.4 | – | – | – | – |
| AAUAACAGAGGAUAUACUAUUUUAUGUGUUUGUUGUUUUAAACAUGAGGAUCACCCAUGUAGAAGGCUGAGUAA [JMF 33] (puzzle: Exclusion 2) | – | 21.8 | – | – | – | – |
| AAUAACAGAGGAUAUACUAUUUUAUGUGUUUGUUGUUUUAAACAUGAGGAUCACCCAUGUAGAAGGCUGAUUGA [JMF 74] (puzzle: Exclusion 2) | – | 31.1 | – | – | – | – |
| AAUAACAGAGGAUAUACUGUUUUAUGUGUUUGUUAUUUUGAACAUGAGGAUCACCCAUGUAGAAGGCUGAAUAA [JMF 23] (Eterna round: R96, puzzle: Exclusion 2) | – | – | – | 23.9 | 25.3 | 18.8 |
| AAUAACAGAGGAUAUACUGUUUUAUGUGUUUGUUAUUUUGAACAUGAGGAUCACCCAUGUAGAAGGCUGAAUAA [JMF 23] (puzzle: Exclusion 2) | – | 21.3 | – | – | – | – |
| AAUAACGAGCCGGUCCUCCACAUGAGGAUCACCCAUGUGUUCGUCUUGUAAAGUACUAUCACGAAAGUGAUAGUACA [mod jandersonlee2] (Eterna round: R97, puzzle: Sensor, turn-off variant 1) | – | – | – | 746 | 858 | – |
| AAUAAUAAGGAGGAUAUCGUAUCGGAAACGAUACGAGAAGGCCUAACAUGAGGAUCACCCAUGUUCCUUAAAUA [Mat - Exclusion 6 - Eli Mod - D61] (puzzle: Exclusion 6) | 37.3 | 19.1 | 20.1 | – | – | – |
| AAUAAUAGCGAGGAUAUCGUAUCGGAAACGAUACGAGAAGGCGUAACAUGAGGAUCACCCAUGUGUCCUCAAAA [Mat - Exclusion 6 - Eli Mod - D7] (Eterna round: R97, puzzle: Exclusion 6) | – | – | – | 2520 | 146 | – |
| AAUAAUGAACGAGCUUUUUACAUGAGGAUCACCCAUGUCCUCUGCUCGUCUUGUCUUGGGCUUUUUUUGGGUUCGGG [-22.1, -44.7 kcal, A 17%] (Eterna round: R97, puzzle: Sensor, turn-off variant 1) | – | – | – | 331 | 338 | – |
| AAUAAUGAGUAGGAUAUCACUAGCGAUAGCUAGUGAGAAGGACUCACAUGAGGAUCACCCAUGUGUUCCAAUAA [Mod3 Ex6/6-A4 by Brourd] (Eterna round: R97, puzzle: Exclusion 6) | – | – | – | 195 | 50.8 | – |
| AAUAAUUGUGACUUGGGUGACAUGAGGAUCACCCAUGUUACAAGCUUGUUGCUCGUCUUAUAAUUAACCCAUGUCAC [LRO Sensor-off var1-24 mod of Stov1-13-A1 by Brourd] (Eterna round: R97, puzzle: Sensor, turn-off variant 1) | – | – | – | 21.1 | 21.9 | – |
| AAUACAAGCGAGAUCCUAAACAUGAGGAUCACCCAUGUGCUCGUCUUAUAAAGUACUAUCACGAAAGUGAUAGUACA [Sensor 3, v1 - 67] (puzzle: Sensor v3, turn-off variant 1) | 16.7 | 157 | 16.5 | – | – | – |
| AAUACAAGCUAUUGAUCCCACAUGAGGAUCACCCAUGUAGCUGGCCGUGAGACCAGCUUUACGAUAGCUCGUCUUAU [Sensor-V1 #50] (Eterna round: R97, puzzle: Sensor, turn-off variant 1) | – | – | – | 261 | 263 | – |
| AAUACAAGCUAUUGAUCCCACAUGAGGAUCACCCAUGUAGGAGGCCGUGAGACCUCCUUUACGAUAGCUCGUCUUAU [Sensor-V1 #52] (Eterna round: R97, puzzle: Sensor, turn-off variant 1) | – | – | – | 211 | 208 | – |
